Test results taken from patent US20210324028A1 (Pfizer, published 2021).

T1: mouse PD-1 on doxycycline-induced 32D[pRF770+pRF791] cells (mouse, UniProt Q02242 25-288)
T1 sequence (looked up): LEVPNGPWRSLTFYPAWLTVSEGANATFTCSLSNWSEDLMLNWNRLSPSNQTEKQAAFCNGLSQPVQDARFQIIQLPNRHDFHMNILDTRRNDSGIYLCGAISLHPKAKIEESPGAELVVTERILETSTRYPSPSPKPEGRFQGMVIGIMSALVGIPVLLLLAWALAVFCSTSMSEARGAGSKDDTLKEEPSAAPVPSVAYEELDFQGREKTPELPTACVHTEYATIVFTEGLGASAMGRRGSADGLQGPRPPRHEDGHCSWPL

T2: IL-15 signaling receptor on 32D[pRF770+pRF791] cells (human CD122 plus mouse CD132) (human; mouse, UniProt P14784 27-551; P34902 23-369)
T2 sequence (looked up) 1: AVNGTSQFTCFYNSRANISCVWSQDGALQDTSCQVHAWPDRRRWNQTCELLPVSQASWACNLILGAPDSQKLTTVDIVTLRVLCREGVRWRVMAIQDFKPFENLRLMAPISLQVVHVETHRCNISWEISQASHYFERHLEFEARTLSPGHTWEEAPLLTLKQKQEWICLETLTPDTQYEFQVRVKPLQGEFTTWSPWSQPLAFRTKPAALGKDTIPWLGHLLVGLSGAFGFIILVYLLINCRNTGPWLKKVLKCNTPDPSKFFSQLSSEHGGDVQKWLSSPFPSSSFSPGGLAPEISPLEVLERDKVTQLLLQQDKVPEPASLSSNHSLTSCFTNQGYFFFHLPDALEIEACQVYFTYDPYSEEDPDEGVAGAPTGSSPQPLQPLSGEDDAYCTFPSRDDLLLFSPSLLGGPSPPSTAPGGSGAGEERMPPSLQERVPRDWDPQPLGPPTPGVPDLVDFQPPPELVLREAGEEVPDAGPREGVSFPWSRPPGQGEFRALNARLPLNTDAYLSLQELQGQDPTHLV
T2 sequence (looked up) 2: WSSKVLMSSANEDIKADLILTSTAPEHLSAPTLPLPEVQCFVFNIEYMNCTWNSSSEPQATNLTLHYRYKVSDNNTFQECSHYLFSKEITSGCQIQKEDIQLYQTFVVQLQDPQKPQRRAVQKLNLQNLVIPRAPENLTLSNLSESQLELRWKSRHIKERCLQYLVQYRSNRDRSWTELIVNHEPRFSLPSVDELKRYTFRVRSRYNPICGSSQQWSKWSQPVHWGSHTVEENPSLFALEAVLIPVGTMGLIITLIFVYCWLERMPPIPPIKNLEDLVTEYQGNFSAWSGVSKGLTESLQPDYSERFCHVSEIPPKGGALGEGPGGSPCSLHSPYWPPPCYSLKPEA

T3: human IL-2Rβ (human, UniProt P14784 27-240, limits assumed)
T3 construct: also called hIL-2Rβ; IL-2 receptor beta
T3 sequence (looked up): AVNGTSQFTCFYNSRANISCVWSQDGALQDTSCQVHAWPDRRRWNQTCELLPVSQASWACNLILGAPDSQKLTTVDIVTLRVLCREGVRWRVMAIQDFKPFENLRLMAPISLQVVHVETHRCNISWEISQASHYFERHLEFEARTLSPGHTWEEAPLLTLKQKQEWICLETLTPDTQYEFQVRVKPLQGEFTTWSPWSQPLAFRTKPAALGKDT

T4: human CD122/CD132 on cells of human PBMCs (human, UniProt P14784 27-551; P31785 23-369)
T4 sequence (looked up) 1: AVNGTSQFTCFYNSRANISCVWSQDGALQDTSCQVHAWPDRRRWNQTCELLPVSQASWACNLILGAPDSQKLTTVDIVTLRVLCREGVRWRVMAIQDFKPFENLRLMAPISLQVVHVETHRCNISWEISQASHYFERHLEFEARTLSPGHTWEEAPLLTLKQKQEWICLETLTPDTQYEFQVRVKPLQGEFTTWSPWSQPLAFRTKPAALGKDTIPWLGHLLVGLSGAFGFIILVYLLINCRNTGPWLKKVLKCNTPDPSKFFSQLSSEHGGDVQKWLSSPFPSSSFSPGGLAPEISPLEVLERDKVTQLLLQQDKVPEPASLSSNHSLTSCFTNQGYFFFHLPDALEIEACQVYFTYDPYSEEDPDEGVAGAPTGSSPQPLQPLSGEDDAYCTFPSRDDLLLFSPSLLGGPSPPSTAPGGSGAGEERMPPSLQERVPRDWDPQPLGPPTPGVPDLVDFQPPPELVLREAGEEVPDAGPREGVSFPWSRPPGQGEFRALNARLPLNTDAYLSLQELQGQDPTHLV
T4 sequence (looked up) 2: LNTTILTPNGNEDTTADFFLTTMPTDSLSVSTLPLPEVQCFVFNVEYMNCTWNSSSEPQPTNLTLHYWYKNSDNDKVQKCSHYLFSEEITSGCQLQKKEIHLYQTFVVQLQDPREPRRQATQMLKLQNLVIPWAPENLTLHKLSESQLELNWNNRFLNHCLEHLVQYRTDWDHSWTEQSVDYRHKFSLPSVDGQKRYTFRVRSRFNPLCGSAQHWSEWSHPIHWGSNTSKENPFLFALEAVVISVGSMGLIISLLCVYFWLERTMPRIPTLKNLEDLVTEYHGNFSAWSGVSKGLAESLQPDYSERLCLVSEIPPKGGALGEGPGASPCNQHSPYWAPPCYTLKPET


Tests used:
[1] = target: T1, mouse PD-1 on doxycycline-induced …; test: cell-based or functional assay
[2] = target: T2, IL-15 signaling receptor on …; test: cell-based or functional assay
human IL-2Rβ [3] = target: T3, human IL-2Rβ; test: SPR, steady state, fusion captured
Experimental: Anti-human Fc sensor chips were prepared at 25° C. with a running buffer of 10 mM HEPES, 150 mM NaCl, 0.05% (v/v) Tween-20, pH 7.4. All surfaces of a Biacore CM4 sensor chip were activated with a 1:1 (v/v) mixture of 400 mM EDC and 100 mM NHS for 7 minutes, at a flow rate of 10 μL/min. An anti-human Fc reagent (Goat anti-human IgG Fc-γ specific, SouthernBiotech, Birmingham, Ala., Catalog #2014-01) was diluted to 50 μg/mL in 10 mM sodium acetate (pH 4.5) and injected on all flow cells for 7 minutes at 20 μL/min. All flow cells were blocked with 100 mM ethylenediamine in 200 mM Borate buffer pH 8.5 for 7 minutes at 10 μL/min.
All protein interaction experiments were performed at 37° C. using a running buffer of 10 mM HEPES, 150 mM NaCl, 0.05% (v/v) Tween-20, pH 7.4, 1 mg/mL BSA. Anti-PD-1-hIL-15 fusion proteins were captured at 10 μg/mL at a flow rate of 10 μL/min for 2 minutes. Different fusion proteins were captured in flow cells 2, 3 and 4. No protein was captured onto flow cell 1 which was used as a reference surface. […] After each analyte injection, dissociation was monitored for 5 minutes followed by regeneration of all flow cells with three 60-second injections of 75 mM phosphoric acid. […] For kinetic analysis, the double-referenced sensorgrams were fit globally to a simple 1:1 Langmuir with mass transport binding model using Biacore T200 Evaluation Software version 2.0. For steady-state affinity analysis, the double-referenced equilibrium binding responses were fit with a 1:1 Langmuir steady-state model using Biacore T200 Evaluation Software version 2.0.

human IL-15Rα = target: T5, human IL-15Rα (human, UniProt Q13261 31-205, limits assumed); test: SPR 37C, fusion captured by anti-human Fc
T5 construct: also called hIL-15Rα; IL-15 receptor alpha
Outline: (§1)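 Anti-PD-1–hIL-15 fusions captured at 10 μg/mL on an anti-human Fc surface, receptor injected at 37 °C in HEPES-buffered saline with 0.05% Tween-20 and 1 mg/mL BSA, pH 7.4; 5 min dissociation.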

human IL-2Rβ [4] = target: T3, human IL-2Rβ; test: SPR, fusion captured
Outline: as §1

[5] = target: human PD-1 on cells of human PBMCs (human, UniProt Q15116 25-288); test: cell-based or functional assay
[6] = target: T4, human CD122/CD132 on cells of human …; test: cell-based or functional assay

Chain of human PD-1 on cells of human PBMCs (Q15116 25-288): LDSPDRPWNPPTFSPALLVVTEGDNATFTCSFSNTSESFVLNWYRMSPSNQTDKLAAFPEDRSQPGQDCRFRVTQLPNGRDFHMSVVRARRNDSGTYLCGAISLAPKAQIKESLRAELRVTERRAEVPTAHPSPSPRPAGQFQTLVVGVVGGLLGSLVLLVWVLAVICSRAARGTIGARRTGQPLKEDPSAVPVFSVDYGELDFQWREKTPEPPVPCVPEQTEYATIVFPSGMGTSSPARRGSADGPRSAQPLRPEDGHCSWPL
T5 sequence (Q13261 31-205 limits assumed): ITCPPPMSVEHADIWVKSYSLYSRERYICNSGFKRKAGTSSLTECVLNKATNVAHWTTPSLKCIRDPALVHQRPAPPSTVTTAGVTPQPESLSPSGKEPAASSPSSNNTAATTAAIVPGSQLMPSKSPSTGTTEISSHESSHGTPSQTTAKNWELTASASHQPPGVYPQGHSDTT

Binder	Fold change = EC50 (PD-1(low))/EC50 (PD-1+) [1]	pSTAT5 EC50 on PD-1+ 32D reporter cells [1]	pSTAT5 EC50 on PD-1(low) 32D reporter cells [2]	Kd (human IL-2Rβ [3])	binding result (human IL-15Rα)	Kd (human IL-2Rβ [4])	Fold change = EC50 (Isotype control--IL15)/EC50 (xhPD1--IL15), CD8+cm T cells [5]	Fold change = EC50 (Isotype control--IL15)/EC50 (xhPD1--IL15), NK cells [5]	pSTAT5 EC50 on human CD8+cm T cells (hPBMC) [5]	pSTAT5 EC50 on human NK cells (hPBMC) [6]
xmPD-1-IL15 m1 (other, also called xmPD-1-hIL15 V49R/E46G/N1A/D30N) heavy 1: EVQLVESGGGLVKPGGSLELSCAASGFTFSSYWMSWVRQAPEKGLEWVAAISPSGGSTYYADSVKGRFTISRDNAKNTLFLQMTSLRSEDTAMYYCAKESWGAYYDLWGQGTTVTVSSASTKGPSVFPLAPSSKSTSGGTAALGCLVKDYFPEPVTVSWNSGALTSGVHTFPAVLQSSGLYSLSSVVTVPSSSLGTQTYICNVNHKPSNTKVDKKVEPKSCDKTHTCPPCPAPEAAGAPSVFLFPPKPKDTLMISRTPEVTCVVVDVSHEDPEVKFNWYVDGVEVHNAKTKPREEQYNSTYRVVSVLTVLHQDWLNGKEYKCKVSNKALPAPIEKTISKAKGQPREPQVYTLPPCREEMTKNQVSLSCAVKGFYPSDIAVEWESNGQPENNYKTTPPVLDSDGSFFLVSKLTVDKSRWQQGNVFSCSVMHEALHNHYTQKSLSLSPGSGGGGSGGGGSGGGGAWVNVISDLKKIEDLIQSMHIDATLYTESNVHPSCKVTAMKCFLLGLQRISLESGDASIHDTVENLIILANNSLSSNGNVTESGCKECEELEEKNIKEFLQSFVHIVQMFINTS heavy 2: EVQLVESGGGLVKPGGSLELSCAASGFTFSSYWMSWVRQAPEKGLEWVAAISPSGGSTYYADSVKGRFTISRDNAKNTLFLQMTSLRSEDTAMYYCAKESWGAYYDLWGQGTTVTVSSASTKGPSVFPLAPSSKSTSGGTAALGCLVKDYFPEPVTVSWNSGALTSGVHTFPAVLQSSGLYSLSSVVTVPSSSLGTQTYICNVNHKPSNTKVDKKVEPKSCDKTHTCPPCPAPEAAGAPSVFLFPPKPKDTLMISRTPEVTCVVVDVSHEDPEVKFNWYVDGVEVHNAKTKPREEQYNSTYRVVSVLTVLHQDWLNGKEYKCKVSNKALPAPIEKTISKAKGQPREPQVCTLPPSREEMTKNQVSLWCLVKGFYPSDIAVEWESNGQPENNYKTTPPVLDSDGSFFLYSKLTVDKSRWQQGNVFSCSVMHEALHNHYTQKSLSLSPGK light: DIVMTQSPSSLSVSAGDKVTMSCRASQGISSWLAWYQQKPWQPPKLLIYKASTLESGVPDRFTGSGSGTDFTLTISSVQAEDLAVYYCQQSYSTPWTFGGGTKLEIKGTVAAPSVFIFPPSDEQLKSGTASVVCLLNNFYPREAKVQWKVDNALQSGNSQESVTEQDSKDSTYSLSSTLTLSKADYEKHKVYACEVTHQGLSSPVTKSFNRGEC	1450 fold	53.1 pM	76.9 nM	433 nM	no binding (tested: 3000 nM)					
xmPD-1-IL15 m2 (other, also called xmPD-1-hIL15 V49R/E46G/N1G/E64Q/D30N) heavy 1: EVQLVESGGGLVKPGGSLELSCAASGFTFSSYWMSWVRQAPEKGLEWVAAISPSGGSTYYADSVKGRFTISRDNAKNTLFLQMTSLRSEDTAMYYCAKESWGAYYDLWGQGTTVTVSSASTKGPSVFPLAPSSKSTSGGTAALGCLVKDYFPEPVTVSWNSGALTSGVHTFPAVLQSSGLYSLSSVVTVPSSSLGTQTYICNVNHKPSNTKVDKKVEPKSCDKTHTCPPCPAPEAAGAPSVFLFPPKPKDTLMISRTPEVTCVVVDVSHEDPEVKFNWYVDGVEVHNAKTKPREEQYNSTYRVVSVLTVLHQDWLNGKEYKCKVSNKALPAPIEKTISKAKGQPREPQVYTLPPCREEMTKNQVSLSCAVKGFYPSDIAVEWESNGQPENNYKTTPPVLDSDGSFFLVSKLTVDKSRWQQGNVFSCSVMHEALHNHYTQKSLSLSPGSGGGGSGGGGSGGGGGWVNVISDLKKIEDLIQSMHIDATLYTESNVHPSCKVTAMKCFLLGLQRISLESGDASIHDTVQNLIILANNSLSSNGNVTESGCKECEELEEKNIKEFLQSFVHIVQMFINTS heavy 2: EVQLVESGGGLVKPGGSLELSCAASGFTFSSYWMSWVRQAPEKGLEWVAAISPSGGSTYYADSVKGRFTISRDNAKNTLFLQMTSLRSEDTAMYYCAKESWGAYYDLWGQGTTVTVSSASTKGPSVFPLAPSSKSTSGGTAALGCLVKDYFPEPVTVSWNSGALTSGVHTFPAVLQSSGLYSLSSVVTVPSSSLGTQTYICNVNHKPSNTKVDKKVEPKSCDKTHTCPPCPAPEAAGAPSVFLFPPKPKDTLMISRTPEVTCVVVDVSHEDPEVKFNWYVDGVEVHNAKTKPREEQYNSTYRVVSVLTVLHQDWLNGKEYKCKVSNKALPAPIEKTISKAKGQPREPQVCTLPPSREEMTKNQVSLWCLVKGFYPSDIAVEWESNGQPENNYKTTPPVLDSDGSFFLYSKLTVDKSRWQQGNVFSCSVMHEALHNHYTQKSLSLSPGK light: DIVMTQSPSSLSVSAGDKVTMSCRASQGISSWLAWYQQKPWQPPKLLIYKASTLESGVPDRFTGSGSGTDFTLTISSVQAEDLAVYYCQQSYSTPWTFGGGTKLEIKGTVAAPSVFIFPPSDEQLKSGTASVVCLLNNFYPREAKVQWKVDNALQSGNSQESVTEQDSKDSTYSLSSTLTLSKADYEKHKVYACEVTHQGLSSPVTKSFNRGEC	2370 fold	0.31 nM	734 nM		no binding (tested: 3000 nM)	> 1500 nM				
xhPD-1-IL15 m1 (other) heavy 1: not shown heavy 2: not shown light: DIQMTQSPSSLSASVGDRVTITCKSSQSLWDSGNQKNFLTWYQQKPGKAPKLLIYWTSYRESGVPSRFSGSGSGTDFTLTISSLQPEDFATYYCQNDYFYPLTFGGGTKVEIKRTVAAPSVFIFPPSDEQLKSGTASVVCLLNNFYPREAKVQWKVDNALQSGNSQESVTEQDSKDSTYSLSSTLTLSKADYEKHKVYACEVTHQGLSSPVTKSFNRGEC							47 fold	1.99 fold	78 pM	0.475 nM
